Where two headings read alike, the source gives them in different places.
What was measured:
[1] = target: T1, mEGFR ECR (His6-Avi-tagged) (mouse, UniProt Q01279 25-644); assay: IgG1 ELISA at pH 6.5, mEGFR ECR against hEGFR ECR
T1 construct: also called mouse EGFR; not shown: His6-Avi tag

[2] = target: T2, hEGFR ECR H370A (human, UniProt P00533 25-642); assay: IgG1 ELISA, pH 6.5 and pH 7.4 (EC50 ratio pH 7.4/pH 6.5)
[3] = target: T3, hEGFR ECR-His6-Avi-Biotin (human, UniProt P00533 25-642, biotinylated on the Avi tag using BirA ligase); assay: ELISA: hEGFR ECR on plate, IgG1 titrated, anti-hFc-HRP; pH 6.5 [table]
T3 construct: also called WT hEGFR ECR; human EGFR ECD; not shown: His6-Avi tag

[4] = target: T3, hEGFR ECR-His6-Avi-Biotin; assay: ELISA: hEGFR ECR on plate, IgG1 titrated, anti-hFc-HRP; pH 7.4 [table]
[5] = target: T1, mEGFR ECR (His6-Avi-tagged); assay: ELISA: mEGFR ECR on plate, IgG1 titrated, anti-hFc-HRP; pH 6.5 [table]
[6] = target: T1, mEGFR ECR (His6-Avi-tagged); assay: ELISA: mEGFR ECR on plate, IgG1 titrated, anti-hFc-HRP; pH 7.4 [table]
[7] = target: T3, hEGFR ECR-His6-Avi-Biotin; assay: ELISA: WT hEGFR ECR on plate, IgG1 titrated, anti-hFc-HRP; pH 6.5 [table]
[8] = target: T3, hEGFR ECR-His6-Avi-Biotin; assay: ELISA: WT hEGFR ECR on plate, IgG1 titrated, anti-hFc-HRP; pH 7.4 [table]
[9] = target: T3, hEGFR ECR-His6-Avi-Biotin; assay: ELISA: hEGFR ECR on plate, IgG1 titrated, anti-hFc-HRP; pH 6.0 [left panel]
[10] = target: T3, hEGFR ECR-His6-Avi-Biotin; assay: ELISA: hEGFR ECR on plate, IgG1 titrated, anti-hFc-HRP; pH 7.4 [left panel]
[11] = target: T2, hEGFR ECR H370A; assay: ELISA: hEGFR ECR H370A on plate, IgG1 titrated, anti-hFc-HRP; pH 6.5 [table]
[12] = target: T2, hEGFR ECR H370A; assay: ELISA: hEGFR ECR H370A on plate, IgG1 titrated, anti-hFc-HRP; pH 7.4 [table]
[13] = target: hEGFR ECR H433A (human, UniProt P00533 25-642); assay: ELISA: hEGFR ECR H433A on plate, IgG1 titrated, anti-hFc-HRP; pH 6.5 and pH 7.4
[14] = target: T3, hEGFR ECR-His6-Avi-Biotin; assay: ELISA: hEGFR ECR on plate, IgG1 titrated, anti-hFc-HRP; EC50 at pH 7.4 over EC50 at pH 6.5 [table]
[15] = target: T1, mEGFR ECR (His6-Avi-tagged); assay: ELISA: mEGFR ECR on plate, IgG1 titrated, anti-hFc-HRP; EC50 at pH 7.4 over EC50 at pH 6.5 [table]
[16] = target: T3, hEGFR ECR-His6-Avi-Biotin; assay: ELISA: WT hEGFR ECR on plate, IgG1 titrated, anti-hFc-HRP; EC50 at pH 7.4 over EC50 at pH 6.5 [table]
[17] = target: T2, hEGFR ECR H370A; assay: ELISA: hEGFR ECR H370A on plate, IgG1 titrated, anti-hFc-HRP; EC50 at pH 7.4 over EC50 at pH 6.5 [table]
[18] = target: T3, hEGFR ECR-His6-Avi-Biotin; assay: competition ELISA: hEGFR ECR on plate, IgG1 titrated in a mixture with EGF-mFc, bound EGF-mFc detected with anti-mFc-HRP; pH 6.0 [left panel]
[19] = target: T3, hEGFR ECR-His6-Avi-Biotin; assay: ELISA: hEGFR ECR on plate, IgG1 titrated, anti-hFc-HRP; pH 6.5 [table]; remark: listed apart in the source
[20] = target: T3, hEGFR ECR-His6-Avi-Biotin; assay: ELISA: hEGFR ECR on plate, IgG1 titrated, anti-hFc-HRP; pH 7.4 [table]; remark: listed apart in the source
[21] = target: T3, hEGFR ECR-His6-Avi-Biotin; assay: ELISA: G5V2 IgG1 coated on plate, antigen titrated, HRP-labeled His-Tag antibody; pH 7.4
[22] = target: T2, hEGFR ECR H370A; assay: as above
[23] = target: T3, hEGFR ECR-His6-Avi-Biotin; assay: as above; remark: listed apart in the source
[24] = target: T3, hEGFR ECR-His6-Avi-Biotin; assay: ELISA: hEGFR ECR on plate, IgG1 titrated, anti-hFc-HRP; EC50 at pH 7.4 over EC50 at pH 6.5 [table]; remark: listed apart in the source
[25] = target: human EGFR domain III (human) (UniProt P00533); assay: ELISA: antibody coated on plate, hEGFR domain III titrated (Log[Ag] nM), detected through its His tag; pH not given [table]
[26] = target: T3, hEGFR ECR-His6-Avi-Biotin; assay: ELISA: antibody coated on plate, hEGFR ECR titrated (Log[Ag] nM), detected through its His tag; pH not given [table]
[27] = target: T3, hEGFR ECR-His6-Avi-Biotin; assay: phage display Fab ELISA on hEGFR ECR
[28] = target: T3, hEGFR ECR-His6-Avi-Biotin; assay: phage display Fab ELISA on hEGFR ECR, pH 6.5
[29] = target: T3, hEGFR ECR-His6-Avi-Biotin; assay: phage display Fab ELISA on hEGFR ECR, pH 6.5 and pH 7.4
[30] = target: T3, hEGFR ECR-His6-Avi-Biotin; assay: phage ELISA: hEGFR ECR on plate, phage display Fab titrated, anti-M13-HRP; EC50 at pH 7.4 over EC50 at pH 6.5 [table]

B1: 14C07 (full-length human IgG1 form) (antibody, V domains shown)
VH: QVQLVQSGAEVKRPGSSVKVSCKASGGTFSSYAISWVRQAPGQGLEWMGGIIPIFGTANYAQKFQGRVTITADESTSTAYMELSSLRSEDTAVYYCARDSSSGWYDYFDYWGQGTLVTVSS
VL: QPVLTQPPSVSAAPGAMARITCESPDIGSKSVQWYQQRPGQAPILVIYYDDDRPSGIPERFSGSNSGNTAALTINWVEPEDEADYYCQAWDDSDPVVFGGGTQLTVLG
In the case of B1, the “EC50 ratio, mEGFR/hEGFR (pH 6.5)” value [1] is reported as 8.73, the “fold weaker pH-dependency of binding than with WT EGFR ECR” value [2] is reported as greater than 2 fold and the EC50 [3] is reported as 0.048 nM. It also gave an EC50 [4] of 0.155 nM, an EC50 [5] of 0.419 nM and an EC50 [6] of 2.73 nM. It also gave an EC50 [7] of 0.301 nM, an EC50 [8] of 0.818 nM and an EC50 [9] of 0.02 nM. It also gave an EC50 [10] of 0.662 nM, an EC50 [11] of 0.433 nM and an EC50 [12] of 0.462 nM. For the same binder, the binding result [13] was “no binding (tested: 100 nM (Log[Ab] 2))”, the “EC50 ratio (pH 7.4/pH 6.5)” value [14] was 3.23 and the “EC50 ratio (pH 7.4/pH 6.5)” value [15] was 6.52. The “EC50 ratio (pH 7.4/pH 6.5)” value [16] was 2.72, the “EC50 ratio (pH 7.4/pH 6.5)” value [17] was 1.07 and the IC50 [18] was 29 nM.

B2: G5V2 (human IgG1 form) (antibody, V domains shown)
VH: QVQLVQSGAEVKRPGSSVKVSCKASGGISDGSAISWVRQAPGQGLEWMGGIYFFNGNTNYAQKFQGRVTITADESTSTAYMELSSLRSEDTAVYYCARDSSLGYYDYFDYWGQGTLVTVSS
VL: QPVLTQPPSVSAAPGQTARITCGGNNIGEKYVQWYQQRPGQAPVLVIYYDDDRPSGIPERFSGSNSGNTAALTINSVEAGDEADYYCQAWDDYDPVVFGGGTQLTVLG
B2 was tested, and the “EC50 ratio, mEGFR/hEGFR (pH 6.5)” value [1] was 1.23, the EC50 [3] was 0.03 nM and the EC50 [4] was 0.031 nM. For the same binder, the EC50 [5] was 0.037 nM, the EC50 [6] was 0.046 nM and the EC50 [19] was 0.502 nM. For the same binder, the EC50 [20] was 0.595 nM, the “EC50 (read off the curve)” value [21] was roughly 2 nM and the “EC50 (read off the curve)” value [22] was roughly 3 nM. The “EC50 (read off the curve)” value [23] was roughly 3 nM, the “EC50 ratio (pH 7.4/pH 6.5)” value [14] was 1.03 and the “EC50 ratio (pH 7.4/pH 6.5)” value [15] was 1.24. The “EC50 ratio (pH 7.4/pH 6.5)” value [24] was 1.19, the EC50 [25] was 2.37 nM and the EC50 [26] was 1.24 nM.

B3: G5V2 Y32E (phage display Fab form) (Fab, V domains shown)
VH: B2 VH
VL: QPVLTQPPSVSAAPGQTARITCGGNNIGEKEVQWYQQRPGQAPVLVIYYDDDRPSGIPERFSGSNSGNTAALTINSVEAGDEADYYCQAWDDYDPVVFGGGTQLTVL
notes: Y32 is Kabat numbering
B3 was tested, and the “fold higher binding affinity over G5V2 Y32D” value [27] was roughly 3 fold, the “fold decrease of binding affinity at pH 6.5 against G5V2” value [28] was roughly 8 fold and the “fold higher pH-dependent binding over WT G5V2” value [29] was roughly 13 fold. The “EC50 ratio (pH 7.4/pH 6.5)” value [30] was 15.6.

From patent US20260242489A1 (HUAHUI HEALTH, published 2026)
